In a protein production outcome set (Wang et al. 2014):

Assay: label from the status in PepcDB records

**Q.** For “MSQQPESDRTEGDLRNTGMELKHERTWDYELDRIVDAVEERDAMKVGLQFPEGLKRRAGRVADDLRRLLPDETTVLLSGQPCYGACDLDTYMMRRTDVFVHFGHSPMKESDKIIYVPLFSNVEVTPIMEEARAELAAPEEDDAVGLVTTAQHMNRFDEMQAWLEERGYTVETRRGDERLTHEGQVLGCNYASADVDADQILYVGGGKFHPLGLAMEHPDKKVIIADPVNNAVHVADTEQFMKQRYAAVHKAMDAEEWGVIFCTKIGQGRWDTAEEIVEANDNAYLITMDEVTPDRLTNFGFDAYVNTGCPRITTDDGPQFKQPMLTPGEYKIAIGEKPMDSLSFDTFHGTW”, which protein production is on record?
**A.** Its protein production is “failed”.

**Q.** Which protein production does the source give for “MSQRTSEENRYEQLHRFAAKIHSTMQIDDVLEEIICTLQNVYPAFTYHLLLSHDNHVCGNLPIKTLALDESEGQPAALRAFLTGQVQCEETAAPPRSVLYAPIKGVQAVYGVIQIIAPYAAPFPKREINFISLLAGTAGRALENAKLYEQSRRLEHHHHHH” here?
**A.** The protein production was “not failed”.

**Q.** With “MSQSSKARLSTDPTVFEAVLNNHTPMMQQYLRIKAQHPDMLMFYRMGDFYELFFDDAEKAAKLLDITLTRRGTSAGEPIKMAGVPYHAAEQYLAKLVKLGESVVICEQVGDPATSKGPVERQVTRIITPGTLTDAALLEDKRDSALLALLVHESTLGLAWLNLAAGQFSVMETSVNNLTAELERLKPAEILLPESLNLAGINDRVIQEKLCVKHLPAWQFDTAAAVRNLSRQFGTHDLSGFGCEDLDVSLGAASALLDYTRLTQGASIGHIKGLRVEREDTYLRMDATTRRNLEISETIRGDAAPTLLSLLDTCSTNMGSRLLCHWLHHPLRDRGLIQNRLNGVSFLMGEAGSGPCLSVRDCLKRVTDIERITARIALKSARPRDLSGLRDSLKRLPAVNNAVAGTATTSSGGSDVSAHVAALIHSMAPDNALVALLEKSLKEEPEVMLRTGGVIADGYDAELDELRAIHNNCDEFLLQLETREKARTGIANLKVEYNRLHGFYIEVTHAHTEKIPDDYRRRQTLKNAERYITPELKAFEEKALSAQSRALEREKLLYGELLDMLSQYIDHLQQVARSVAELDVLATFAERALALDYSLPLFTSDSVIEIQAGRHPVVEKQVDSFIANDVQLGARTGGRRQMLVITGPNMGGKSTYMRQVALIALLAHCGSFVPARSALIGPLDQLFTRIGASDDLAGGRSTFMMEMTEAANILHNATAQSLVLMDEVGRGTSTFDGLALAFAIARYLLEKNRSYTLFATHYFELTRLAEEFAQVANVHLRAVEHKHHIVFLHAVNEGPASQSYGLQVAALAGVPDPVIRTARRYLLKLEQEALSNQPQGDLFSRDDLFWKQDRMPEGSVDKNDSAPEHPVLALLRTIVPDDLSPKQALEQLYGLKKAAEKE” as the sequence, how does the protein production read?
**A.** The protein production was “failed”.

**Q.** For “MSQTPSLAQLQPADAFLRRHLGPDPAEQQAMLAFLGVSTRAELIVQTVPPAIRLNRPLELPAALDEQAALARLRGYAGLNQRWTSLIGMGYYGTVTPSVILRNVLENPGWYTAYTPYQPEIAQGRLEALLNFQQLTIDLTGLDLASASLLDEATAAAEAMALARRVAKARSNRFFVDAHCHPQTVSVLRTRAEAFGFELVVDEPDNLAAHAVFGALLQYPDSRGEIRDLRPLIEALHGQQALACVASDLLALLLLTPPGELGADVVLGSAQRFGVPMGYGGPHAAFFATREGYKRAMPGRIIGVSRDARGNPALRMALQTREQHIRREKANSNICTAQVLLANIASLYAVYHGPQELKRIAQRVQRLTALLAAGLKSKGLRRLNRHFFDTLTYEVGERQAAILERARAARVNLRVVDDRRLALSLDETCDAATLATLFEIFLGAGHGLDVAHLDGGAVADGIPAVLQRTSAYLQHPVFNAHHSETEMLRYLRQLEGKDLALNQAMIPLGSCTMKLNASSEMIPITWPEFAELHPFVPREQAEGYRRMIDELEAWLRAITGFDAICMQPNSGAQGEYAGLLAIRRYHQSRGDSQRDICLIPASAHGTNPASAIMASMRVVIVECDPRGNVDLDDLRLKAAEAGDRLSCLMITYPSTHGVYEEGIGEICEVVHRHGGQVYMDGANLNAQVGLARPADIGADVSHMNLHKTFCIPHGGGGPGMGPIGVKRHLAPFVANHPVIRVEGPNPLNDAVSATPWGSASILPISWMYIAMMGPQLADASEVAILSANYLANRLDGAFPVLYRGRNERVAHECILDLRPLKAQTGITEEDVAKRLMDYGFHAPTMSFPVPGTLMVEPTESESKAELDRFVEAMLSIRAEIGKVESGAWPAEDNPLKRAPHTLADVTGIWQRPYEIAEAVTPSEHARAFKYWPAVNRVDNVYGDRNLFCACVPLDDYR”, which protein production is on record?
**A.** Its protein production is “failed”.

**Q.** With “MSQTSLEPLIISIIKLQILQLWLKLIAVGWNLGSNDDELYTELWKACAGPLVEVPRYGERVFYFPQGHMEQLVASTNQGVVDQEIPVFNLPPKILCRVLSVTLKAEHETDEVYAQITLQPEEDQSEPTSLDPPLVEPAKPTVDSFVKILTASDTSTHGGFSVLRKHATECLPSLDMTQPTPTQELVARDLHGYEWRFKHIFRGQPRRHLLTTGWSTFVTSKRLVAGDAFVFLRGETGDLRVGVRRLAKQQSTMPASVISSQSMRLGVLATASHAVTTTTIFVVFYKPRISQFIISVNKYMMAMKNGFSLGMRYRMRFEGEESPERIFTGTIIGSGDLSSQWPASKWRSLQIQWDEPSSIQRPNKVSPWEIEPFSPSALTPTPTQQQSKSKRSRPISEITGSPVASSFLSSFSQSHESNPSVKLLFQDPATERNSNKSVFSSGLQCKITEAPVTSSCRLFGFDLTSKPASATIPHDKQLISVDSNISDSTTKCQDPNSSNSPKEQKQQTSTRSRIKVQMQGTAVGRAVDLTLLRSYDELIKELEKMFEIEGELSPKDKWAIVFTDDEGDRMLVGDDPWNEFCKMAKKLFIYPSDEVKKMRSKSLLGDKGTIVNLESDQRTVHV” as the sequence, how does the protein production read?
**A.** The protein production was “failed”.

**Q.** For “MSRAYTGALSYPQKIVIILLNKISSQHLKGDIFGGLTAAVIALPLALAFGVSSGAGAIAGVYGAIFVGFFAALFGGTATQISGPTGPMSVVMALVFTQLIGSHPDTGLVLAFTCVILAGLFQILFGLLKLGKYFVMVPYPVISGFMTGIGIIIILLQISPLLGSAGDSNALAALMNIPNALSQQNTLATVLGVITLLLMIYWPEKWTKIIPAPLFALITLTVISATFFSQQGISVIGEIPTGFPSLSMPSLSLESLSQVSYFAFLLAVLGAIDSLLTSMVADTLTETHHDSDKELIGQGIANTIAGFFGALPGAGATMRTAINIRAGGKTALSGIIHSITLLIVILWAGDYAQYIPHTVLAGMLIKVGLDIIDWRFIFQIKKVGLFSATLMLLVLLLTVFVDLITAVLVGMFIANLVTLDRLTHIQLDNITFKRGDELLSEISSNETNIALTDDIQNNLSKSLANTLLLEIDGPVSFAVSRELSRRFTENLAFTTLVIDLSNAKLIGTTTAIMITDLIDRTKSKEKTVLVITGNEKINQSLDKLSLATLLDKKYQFTNREQALQTLI”, which protein production is on record?
**A.** Its protein production is “failed”.

**Q.** For “MSRCASRFRISSKLSATFRTTHKSHQARNPAGFFVIMGYHKDATKRMIMVYTKVYPMRFGYIALGTPPIQSLDIRKMPKLTDMQIRAWIKSGERFEGRADGNGLYLRYREADKTPTWRFRYKLAGKSRAMLIGSYSELSLSKARETAKELSARVALGYDVAGEKQKRKTEALAKMEAEKNAMRVSELAAEYFERQILPRWKHPDILRRRIDKDINPCIGSMKVEDVKPRHIDDMLKGIVDRGAPTIATDVLRWTRRIFDYGIKRHALEINPCSAFEVADAGGKEAARDRWLTRDELIQLFKAMRTAKGFSRQNEITFKLLLALCVRKMELCAARWEEFDLDGAVWHLPEERSKNGDPIDIPLPSPAVEWLRELHTFSCNSAWVLPARKMQNRMIPHIQESTLPVALAKVRAEMPDVPNFTIHDFRRTARTHLAALGVDPVVAERCLNHRIKGVEGIYNRHQYFDERKAALAQWADLLVALESGKDYNVTPLRRAN”, which protein production is on record?
**A.** Its protein production is “failed”.

**Q.** For “MSRHPARTGEKTFFGHPFQLSTLFHIELWERFSFYGMQGILLIYLYYTADKGGLGIDKTLAGGIVGAYSGSVYLSTILGAWFADRVWGAEKTLFLSGIVVMLGHIVLAAAPGLYGLLIGLIFIALGSGGVKSTASSMVGALYEQDEMRPLRDAGFSIFYIAINIGGFLGPLLTGLLQENIGFHYGFGAAAVGMAFGLWRYSLGRKNLPHPTVPHPLSKGQGKTAAAVGITLIAALATAIKTGLVNLDNFSGILLSTVILAVIAYFARLLTNPRVSSDNKRHIIAYIPLFLTICMFWAVWFQIYTVATVYFDETVNRTIGSFTVPVAWKDSMQSLWVILFSGLMAAMWTKMGRKQPKTPLKFAMAVFVTGASFLGFVPFISSGTPMPIAVFALIVLAITIGELMISPIALSISTKIAPPLFKTQMVALNFLAFSLGFTLGGVLFEKGYQAGDEIGFYRLLFYIGAATGFLLLLLVPKLNKMLEGTD”, which protein production is on record?
**A.** Its protein production is “failed”.

**Q.** For “MSRKILDRYIAKTVLSAIGLVTLMLVGLQIFILFVNQIDDLGRADYGIVQAGVFVLLQMPYQVYLFFPIASLLGCLVGLGVLANHSELVVMRAAGISIGQITGAVLKASLIVILLITSLGETIVPVMAHYANEYKVSALTGGQALLTPRGVWVRNGNDFVSIASVTHENTLRYVNQFRFDNQHNLKLARQISEVKYVNNSWIAYDVKQTEFAEDHTKAHHFDTLPWDVPVKPEILKITGTNPDEMTLHELNRYLREQQRNHQNVANYKFAFFQRITQPLNTMVMMILAIPFIFGPLRSSTMGSKLLVGAMVGFGFHILNRFFGPVSTVFQWPPELAAFSPTLIFSLIGIYLMRRVR”, which protein production is on record?
**A.** The protein production was “failed”.

**Q.** With “MSRNRVMSIDFQQLPHAGIRSLIPYVPGKSIEELAKEKGITDIIKLASNENPLGCSPLALSVIQTMSSHYIATYPSPWNHPLMSKLASYLKVKPEQLFLSNGSDYLFNILLNCFALHTDRHILTHDYAFSTYAIQANSLQIPINSVPIGHNWEVNITDIVNACNQQTGIIFIANPNNPTGVLIQQEEIKYLLEQIPKSTLLVLDEAYYEFAASQLTVNSLDWLEEHPNLVVTRTFSKIYGMAGLRLGYAIANPSIINILKRVQLPFIVNQVALAAAYAAIDDDDFIQSSLKMNNEGMLQLQAGFNELNIKYLPSSCNFLTFDCEEDSMALYNYLLDNGIIVRPLHAYKMNNFIRVTIGTKEQNSRFLTALKNFYL” as the sequence, how does the protein production read?
**A.** Its protein production is “failed”.

**Q.** For “MSRPDDIDVRPIAEAETADWIRALNTGFLRSPEVSEREVADRSSYLVPARTLGAFDNGRCVATFRSFPQELTAVGGASVPADAISNVTVTATHRRRGLLTRMMAQDLAAAKERGDVVATLIAAEYPIYGRYGFGAATHSTEWTID”, which protein production is on record?
**A.** The protein production was “failed”.

**Q.** Which protein production does the source give for “MSRPSVNRSGEMEIFAKAVELGGFSAAARHYRMTPSAVSKLVLRLEERLGVRLVNRSTRKLQLTPEGHAFYERTVRILADIDEAERSASAGESPVGRVRLNVNASFGTHVLMPLVPEFRAHFPAVSLDIVMTDAVVDLMEARADVAIRAGPLKSSTLIARKLGATRMMIVAAPSYIERYGMPSSLEELKGHERLGFCYARAVDGWPLRTDGETVVLPASGAVQVSDGEGLRQLALAGAGLARLAEFTVREDVSARRLVPVLEDLNPGDLEEVHAVYLGQGGALPARVRAVLDFLARHARITPGQDAGRRRTSPIPAPA” here?
**A.** Its protein production is “failed”.

**Q.** Which protein production does the source give for “MSRQAEDLMVRTLSDASSLFGKERYKKALEKLDKAEKLAEKTKRTDILCRVLLQKGAVMNSMGKPDEGQDLYDKALDIYRTSNLNEQESSVLKHTLSNTFSELAKHFKMVDSIENAEKCYLNEIKVYEILLEKDPEDEDSNLEIARVFKAIGDLYEYFKPEKMDPETERQYYEKILDIREKAFELLPDSETYIYDLAHALGKLVDYYIIRQDYKSAIQFQERVVEVMEELIDLLANWKDLKAKSNAYDKLGSLYAEIGEEELAQEQYSKALEYYGMIFDDELWPLSVKAMLASELMERGKTLLLLKKYESAKESMDVALDFLEGVDKEEMEDSTEESLDLASVILGEGYEEESEDSGYLAELAGIFREYAKTLSDLNRNEEAEEFTAKSEKILRKLA” here?
**A.** Its protein production is “failed”.

**Q.** For “MSRRAGHNGRPLLEVPMLLRGLTWLVLFQLLGTGLNVLLLPMLPGPIIGLVLLFGYFLARGEVGKPVNEAAGSLLRYLPLLLVPAAVGVMAYAREIAADFWAIVGALVLSLLLSFLFAGWMMQKLIDRQQRRREES”, which protein production is on record?
**A.** Its protein production is “failed”.

**Q.** For “MSRSDNGGEDKGLRITRREFLAAAGAGAAAFIVGAVVGSTAFPREKEVVKPGPTQTVTATATETATVTETQTQVQLVEKKYPKVKIANVSELREGQPVFKEYIGHRIVVIKLGEEAVNGVGPDKDIVAFSMLCTHMGGFLIFDGNTKTLICPLHFSQFDPSRGGQPVVGHATEYLPQVILEYDEASGDIFAVGFTALVYGRYDNLQGVKA”, which protein production is on record?
**A.** Its protein production is “failed”.
